Assay results reported in the Human Domainome abundance scans (Beltran et al. 2025).
± gives the uncertainty stated by the source.

Assay: abundance fitness (aPCA) (normalised: wild type 0, dead -1); higher = more abundant; growth selection in yeast, the domain comes from the species named
Conditions: Homo sapiens

Substance	abundance fitness
NEDD4-like E3 ubiquitin-protein ligase WWP2 E457L, O00308	-0.204 ± 0.056
NEDD4-like E3 ubiquitin-protein ligase WWP2 T455G, O00308	-0.379 ± 0.045
NEDD4-like E3 ubiquitin-protein ligase WWP2 A490S, O00308	-0.013 ± 0.048
NEDD4-like E3 ubiquitin-protein ligase WWP2 V459H, O00308	-0.103 ± 0.064
NEDD4-like E3 ubiquitin-protein ligase WWP2 D464I, O00308	-1.28 ± 0.14
NEDD4-like E3 ubiquitin-protein ligase WWP2 N466H, O00308	-0.169 ± 0.075
NEDD4-like E3 ubiquitin-protein ligase WWP2 E480G, O00308	-0.038 ± 0.033
NEDD4-like E3 ubiquitin-protein ligase WWP2 G478Y, O00308	-0.084 ± 0.068
Transcription factor SOX-11 E69V, P35716	-0.401 ± 0.074
NEDD4-like E3 ubiquitin-protein ligase WWP2 N466W, O00308	-0.513 ± 0.047
NEDD4-like E3 ubiquitin-protein ligase WWP2 A490R, O00308	-0.047 ± 0.035
NEDD4-like E3 ubiquitin-protein ligase WWP2 K484L, O00308	-0.064 ± 0.03
NEDD4-like E3 ubiquitin-protein ligase WWP2 A445T, O00308	-0.211 ± 0.073
NEDD4-like E3 ubiquitin-protein ligase WWP2 S481A, O00308	0 ± 0.061
NEDD4-like E3 ubiquitin-protein ligase WWP2 T470V, O00308	-0.263 ± 0.046
NEDD4-like E3 ubiquitin-protein ligase WWP2 P448H, O00308	0.043 ± 0.046
NEDD4-like E3 ubiquitin-protein ligase WWP2 G449Q, O00308	-0.107 ± 0.064
NEDD4-like E3 ubiquitin-protein ligase WWP2 P447V, O00308	-0.633 ± 0.04
NEDD4-like E3 ubiquitin-protein ligase WWP2 G449M, O00308	-0.11 ± 0.042
NEDD4-like E3 ubiquitin-protein ligase WWP2 F472V, O00308	-0.392 ± 0.044
NEDD4-like E3 ubiquitin-protein ligase WWP2 A445R, O00308	0.077 ± 0.039
NEDD4-like E3 ubiquitin-protein ligase WWP2 G449N, O00308	0.119 ± 0.065
NEDD4-like E3 ubiquitin-protein ligase WWP2 R476W, O00308	-0.294 ± 0.045

Substance	abundance fitness
Transcription factor SOX-11 S71C, P35716	-0.055 ± 0.052
NEDD4-like E3 ubiquitin-protein ligase WWP2 D474V, O00308	-0.387 ± 0.067
NEDD4-like E3 ubiquitin-protein ligase WWP2 F472N, O00308	-0.373 ± 0.053
NEDD4-like E3 ubiquitin-protein ligase WWP2 R493P, O00308	-0.006 ± 0.063
NEDD4-like E3 ubiquitin-protein ligase WWP2 T471R, O00308	-0.62 ± 0.05
NEDD4-like E3 ubiquitin-protein ligase WWP2 Y491S, O00308	0.037 ± 0.038
NEDD4-like E3 ubiquitin-protein ligase WWP2 S487K, O00308	0.016 ± 0.038
NEDD4-like E3 ubiquitin-protein ligase WWP2 P447C, O00308	-0.458 ± 0.07
NEDD4-like E3 ubiquitin-protein ligase WWP2 R468L, O00308	-0.191 ± 0.047
NEDD4-like E3 ubiquitin-protein ligase WWP2 Y461C, O00308	-0.538 ± 0.061
NEDD4-like E3 ubiquitin-protein ligase WWP2 P444V, O00308	0.065 ± 0.058
NEDD4-like E3 ubiquitin-protein ligase WWP2 G449H, O00308	-0.274 ± 0.087
NEDD4-like E3 ubiquitin-protein ligase WWP2 R493E, O00308	-0.058 ± 0.063
NEDD4-like E3 ubiquitin-protein ligase WWP2 P448K, O00308	0.108 ± 0.067
NEDD4-like E3 ubiquitin-protein ligase WWP2 E451A, O00308	-0.153 ± 0.056
NEDD4-like E3 ubiquitin-protein ligase WWP2 E443L, O00308	-0.183 ± 0.055
NEDD4-like E3 ubiquitin-protein ligase WWP2 S456Q, O00308	-0.11 ± 0.066
NEDD4-like E3 ubiquitin-protein ligase WWP2 A490V, O00308	-0.05 ± 0.032
NEDD4-like E3 ubiquitin-protein ligase WWP2 M440N, O00308	0.283 ± 0.12
NEDD4-like E3 ubiquitin-protein ligase WWP2 R476H, O00308	-0.4 ± 0.081
NEDD4-like E3 ubiquitin-protein ligase WWP2 G486F, O00308	-0.205 ± 0.073
Transcription factor SOX-11 L107K, P35716	-0.218 ± 0.14
NEDD4-like E3 ubiquitin-protein ligase WWP2 K484Y, O00308	-0.071 ± 0.029

Substance	abundance fitness
NEDD4-like E3 ubiquitin-protein ligase WWP2 E443P, O00308	-0.065 ± 0.064
NEDD4-like E3 ubiquitin-protein ligase WWP2 R476F, O00308	-0.505 ± 0.084
NEDD4-like E3 ubiquitin-protein ligase WWP2 E443A, O00308	-0.065 ± 0.032
NEDD4-like E3 ubiquitin-protein ligase WWP2 T483S, O00308	0.004 ± 0.042
NEDD4-like E3 ubiquitin-protein ligase WWP2 W450C, O00308	-0.446 ± 0.051
NEDD4-like E3 ubiquitin-protein ligase WWP2 N466I, O00308	-0.261 ± 0.079
NEDD4-like E3 ubiquitin-protein ligase WWP2 S487V, O00308	-0.034 ± 0.035
NEDD4-like E3 ubiquitin-protein ligase WWP2 P447F, O00308	-0.331 ± 0.088
Heterogeneous nuclear ribonucleoprotein U-like protein 2 Q16K, Q1KMD3	0.049 ± 0.092
NEDD4-like E3 ubiquitin-protein ligase WWP2 I441D, O00308	-0.419 ± 0.14
NEDD4-like E3 ubiquitin-protein ligase WWP2 V459K, O00308	-0.077 ± 0.063
NEDD4-like E3 ubiquitin-protein ligase WWP2 T455S, O00308	-0.115 ± 0.041
NEDD4-like E3 ubiquitin-protein ligase WWP2 K453V, O00308	-0.063 ± 0.05
NEDD4-like E3 ubiquitin-protein ligase WWP2 P475M, O00308	-0.574 ± 0.062
NEDD4-like E3 ubiquitin-protein ligase WWP2 E451Q, O00308	0.066 ± 0.07
NEDD4-like E3 ubiquitin-protein ligase WWP2 G458P, O00308	-1.03 ± 0.064
NEDD4-like E3 ubiquitin-protein ligase WWP2 G489Q, O00308	-0.157 ± 0.077
NEDD4-like E3 ubiquitin-protein ligase WWP2 F479H, O00308	-0.036 ± 0.083
NEDD4-like E3 ubiquitin-protein ligase WWP2 T471L, O00308	-0.887 ± 0.043
NEDD4-like E3 ubiquitin-protein ligase WWP2 V463F, O00308	-0.288 ± 0.039
NEDD4-like E3 ubiquitin-protein ligase WWP2 K453A, O00308	0.037 ± 0.046
NEDD4-like E3 ubiquitin-protein ligase WWP2 A445K, O00308	-0.01 ± 0.074
NEDD4-like E3 ubiquitin-protein ligase WWP2 W450K, O00308	-0.598 ± 0.084

Substance	abundance fitness
NEDD4-like E3 ubiquitin-protein ligase WWP2 G482M, O00308	-0.121 ± 0.061
NEDD4-like E3 ubiquitin-protein ligase WWP2 R493N, O00308	-0.666 ± 0.28
NEDD4-like E3 ubiquitin-protein ligase WWP2 V459D, O00308	0.05 ± 0.062
NEDD4-like E3 ubiquitin-protein ligase WWP2 A490K, O00308	0.007 ± 0.037
NEDD4-like E3 ubiquitin-protein ligase WWP2 G449C, O00308	-0.668 ± 0.076
NEDD4-like E3 ubiquitin-protein ligase WWP2 R493F, O00308	0.299 ± 0.12
NEDD4-like E3 ubiquitin-protein ligase WWP2 W450M, O00308	-0.4 ± 0.071
NEDD4-like E3 ubiquitin-protein ligase WWP2 P477M, O00308	-0.011 ± 0.05
NEDD4-like E3 ubiquitin-protein ligase WWP2 F462W, O00308	-0.152 ± 0.066
NEDD4-like E3 ubiquitin-protein ligase WWP2 F472D, O00308	-0.319 ± 0.072
NEDD4-like E3 ubiquitin-protein ligase WWP2 K453I, O00308	-0.167 ± 0.053
NEDD4-like E3 ubiquitin-protein ligase WWP2 K453D, O00308	-0.029 ± 0.067
NEDD4-like E3 ubiquitin-protein ligase WWP2 W450E, O00308	-0.492 ± 0.042
NEDD4-like E3 ubiquitin-protein ligase WWP2 G449Y, O00308	-0.205 ± 0.067
NEDD4-like E3 ubiquitin-protein ligase WWP2 K484V, O00308	-0.143 ± 0.046
NEDD4-like E3 ubiquitin-protein ligase WWP2 G478M, O00308	-0.08 ± 0.057
NEDD4-like E3 ubiquitin-protein ligase WWP2 M452W, O00308	-0.194 ± 0.057
NEDD4-like E3 ubiquitin-protein ligase WWP2 K484M, O00308	0.044 ± 0.058
NEDD4-like E3 ubiquitin-protein ligase WWP2 Y454M, O00308	-0.185 ± 0.063
NEDD4-like E3 ubiquitin-protein ligase WWP2 R460N, O00308	-0.343 ± 0.073
